In patent US20040001839A1, “Multimers - isolated molecules comprising epitopes containing sulfated moieties, antibodies to such epitopes, and uses thereof” (priority 2000, published 2004):

What was measured:
Jurkat cells = test: FACS binding of Y1-cys monomer and dimer to Jurkat cells; design: species or system human
Excerpt: The present invention is directed to Y1 and Y17 multimers prepared by any known method in the art. A preferred method of forming multimers, and especially dimers, employs the use of cysteine residues to form disulfide bonds between two monomers. In this embodiment, dimers are formed by adding a cysteine on the carboxyl terminus of the scFvs (referred to as Y1-cys scFv or Y1 dimer) in order to facilitate dimer formation. After the DNA construct was made (See Example 2D and 6D) and used for transfection, Y1 dimers were expressed in a production vector and refolded in vitro. The protein was analyzed by SDS-PAGE, HPLC, and FACS. […] Thus, the process was repeated and this time, two-liter fermentation batches of the antibodies were run. After expressing Y1-cys in E. coli strain BL21, refolding was done in arginine. Following refolding, the protein was dialyzed and purified by Q-sepharose and gel filtration (sephadex 75). Two peaks were detected by SDS-PAGE (non-reduced) and by gel filtration. The peaks were collected separately and analyzed by FACS. Monomer and dimer binding to Jurkat cells was checked by FACS. […] Conditions for dimer refolding were determined, and material comprising >90% dimers (mg quantities) was produced after subsequent dialysis, chromatographic, and gel filtration steps. […]

KG-1 cells [1] = test: Binding competition experiments on KG-1 cells (monomer, dimer, Y1 IgG); design: species or system human; conditions: as analyzed by radioreceptor assay, ELISA or FACS
Excerpt: To compare the binding of the scFv monomer (also referred to as CONY1) with the Y1 dimer, binding competition experiments were done in vitro on KG-1 cells. In addition, these experiments also compared the binding of the full Y1 IgG to the scFv Y1 monomers. To perform this study, a Y1 IgG was labeled with biotin.

KG-1 cells [2] = test: FACS of Y1-biotag and Y1-biotag/streptavidin-PE tetramers on KG-1 cells; format: binding, human
Method: In a preferred method, tetramers are formed via a biotin/streptavidin association. A novel fermentation construct that is capable of being enzymatically labeled with biotin (referred to herein as Y1-biotag or Y1-B) was created. A sequence that is a substrate for the BirA enzyme was added at the Y1 C-terminus. The BirA enzyme adds a biotin to the lysine residue within the sequence. Y1-biotag was expressed in E. coli. The inclusion body material was isolated and refolded. The purity of the folded protein was >95%, and >100 mg were obtained from a 1-L culture (small-scale, non-optimized conditions). […] Nevertheless, this construct offered the advantage of specific biotinylation in which the binding site of the molecule remains intact. Further, each molecule is labeled by only one biotin—each molecule receives one biotin on the carboxyl end.
Limiting labeling to one biotin/molecule in a desired location enabled production of tetramers with streptavidin. The tetramers were formed by incubating Y1-B with steptavidin-PE.
Y1-biotag tetramers with streptavidin-PE appear to specifically bind to one of the Y1-reactive cell lines (KG-1). The differential of this reaction, from background binding, was very high, and offered high sensitivity to detect low amounts of receptor. […] Monocytes and granulocytes were positive to a small extent. […]

washed platelets = test: Ristocetin-induced agglutination of washed platelets (scFv); format: cell-based, human
Method: Aggregation is determined in PRP due to the presence of thrombotic agents, while agglutination is determined in washed platelets. The effect of Y1 (scFv) on agglutination of washed platelets was tested at various concentrations of Y1. Platelets were pre-incubated with Y1 scFv, Y17 scFv, Y16-scFv, or a control TM-1 scFv for 4 min at 37° C. before being exposed to ristocetin, an inducer of platelet agglutination and aggregation.
Platelet concentrate in acid-citrate-dextrose (ACD) was obtained from a blood bank, platelets were isolated, washed once in buffer containing ACD and saline in a ratio of 1:7. The platelets were centrifuged at 800 g for 10 min after each wash and were resuspended in Tyrodes solution (2 mM MgCl2, 137 mM NaCl, 2.68 mM KCl, 3 mM NaH2PO4, 0.1% glucose, 5 mM Hepes and 0.35% albumin, pH 7.35) and count the number of cells.
(§1) For platelet aggregation studies, platelet rich plasma (PRP) and washed platelets were stirred at 500 rpm at 37° C. in whole blood Lumiaggregometer (Chronolog, Havertown, Pa.). The difference in light transmission through the platelet suspension and suspending medium was taken as 100% aggregation. The effect of Y1 on platelet aggregation was evaluated by addition of different concentration of Y1 before the addition of agonist, and the effect was recorded for four minutes.
The effect of Y17-scFv on vWF-dependent agglutination of platelets was tested at different concentrations of Y17.

[3] = system: platelet-rich-plasma (PRP); test: Ristocetin-induced aggregation of platelet-rich plasma (scFv); format: cell-based, human; conditions: scFv 38 μg/ml, 100% = ristocetin treatment
Method: The effect of Y1 (scFv) on aggregation of platelet-rich-plasma (PRP) was tested at various concentrations of Y1. PRP was pre-incubated with Y1 scFv, Y17 scFv, or a control sTM-1cFv for 4 min at 37° C. before being exposed to ristocetin, an inducer of platelet agglutination and aggregation. A reversible inhibitory effect was observed when scFv was added to PRP prior to the addition of ristocetin, and it was dose dependent.
Blood was collected into a tube containing 3.8% sodium citrate. Platelet-rich plasma was prepared by centrifugation at 250×g for 10 minutes.
as §1

B1: Y1 dimer: disulfide dimer of Y1 scFv with a cysteine added on the carboxyl terminus (protein)
scFv 1: MEVQLVESGGGVVRPGGSLRLSCAASGFTFDDYGMSWVRQAPGKGLEWVSGINWNGGSTGYADSVKGRFTISRDNAKNSLYLQMNSLRAEDTAVYYCARMRAPVIWGQGTLVTVSRGGGGSGGGGSGGGGSSELTQDPAVSVALGQTVRITCQGDSLRSYYASWYQQKPGQAPVLVIYGKNNRPSGIPDRFSGSSSGNTASLTITGAQAEDEADYYCNSRDSSGNHVVFGGGTKLTVLGGGGCKAK
scFv 2: MEVQLVESGGGVVRPGGSLRLSCAASGFTFDDYGMSWVRQAPGKGLEWVSGINWNGGSTGYADSVKGRFTISRDNAKNSLYLQMNSLRAEDTAVYYCARMRAPVIWGQGTLVTVSRGGGGSGGGGSGGGGSSELTQDPAVSVALGQTVRITCQGDSLRSYYASWYQQKPGQAPVLVIYGKNNRPSGIPDRFSGSSSGNTASLTITGAQAEDEADYYCNSRDSSGNHVVFGGGTKLTVLGGGGCKAK
amount needed relative to the monomeric antibody for the same level of staining (Jurkat cells): 1/100 | binding relative to the Y1 scFv monomer (KG-1 cells [1]): at least 20 fold

B2: Y1 tetramers: tetramers formed by incubating Y1-B with streptavidin-PE (protein)
scFv 1: MEVQLVESGGGVVRPGGSLRLSCAASGFTFDDYGMSWVRQAPGKGLEWVSGINWNGGSTGYADSVKGRFTISRDNAKNSLYLQMNSLRAEDTAVYYCARMRAPVIWGQGTLVTVSRGGGGSGGGGSGGGGSSELTQDPAVSVALGQTVRITCQGDSLRSYYASWYQQKPGQAPVLVIYGKNNRPSGIPDRFSGSSSGNTASLTITGAQAEDEADYYCNSRDSSGNHVVFGGGTKLTVLGGGGLNDIFEAQKIEWHE
scFv 2: MEVQLVESGGGVVRPGGSLRLSCAASGFTFDDYGMSWVRQAPGKGLEWVSGINWNGGSTGYADSVKGRFTISRDNAKNSLYLQMNSLRAEDTAVYYCARMRAPVIWGQGTLVTVSRGGGGSGGGGSGGGGSSELTQDPAVSVALGQTVRITCQGDSLRSYYASWYQQKPGQAPVLVIYGKNNRPSGIPDRFSGSSSGNTASLTITGAQAEDEADYYCNSRDSSGNHVVFGGGTKLTVLGGGGLNDIFEAQKIEWHE
scFv 3: MEVQLVESGGGVVRPGGSLRLSCAASGFTFDDYGMSWVRQAPGKGLEWVSGINWNGGSTGYADSVKGRFTISRDNAKNSLYLQMNSLRAEDTAVYYCARMRAPVIWGQGTLVTVSRGGGGSGGGGSGGGGSSELTQDPAVSVALGQTVRITCQGDSLRSYYASWYQQKPGQAPVLVIYGKNNRPSGIPDRFSGSSSGNTASLTITGAQAEDEADYYCNSRDSSGNHVVFGGGTKLTVLGGGGLNDIFEAQKIEWHE
scFv 4: MEVQLVESGGGVVRPGGSLRLSCAASGFTFDDYGMSWVRQAPGKGLEWVSGINWNGGSTGYADSVKGRFTISRDNAKNSLYLQMNSLRAEDTAVYYCARMRAPVIWGQGTLVTVSRGGGGSGGGGSGGGGSSELTQDPAVSVALGQTVRITCQGDSLRSYYASWYQQKPGQAPVLVIYGKNNRPSGIPDRFSGSSSGNTASLTITGAQAEDEADYYCNSRDSSGNHVVFGGGTKLTVLGGGGLNDIFEAQKIEWHE
modifications: left off: another chain or arm of the molecule; large carriers; small tags and cut ends
notes: tetramers formed by incubating Y1-B with streptavidin-PE
reactivity in positive cell lines such as KG-1 (KG-1 cells [2]; FACS): at least 100 fold | increase of the sensitivity of the binding (KG-1 cells [2]; complexes with Streptavidin-PE, FACS on KG-1 cells): at least 100 fold

B3: Y17 scFv: second scFv clone binding platelets and myelogenous leukemia cell lines; SEQ ID NO:203, CDR3 SEQ ID NO:20 (protein, listed as Homo sapiens)
scFv: MKYLLPTAAAGLLLLAAQPAMAEVQLVESGGGVVRPGGSLRLSCAASGFTFDDYGMSWVRQAPGKGLEWVSGINWNGGSTGYADSVKGRFTISRDNAKNSLYLQMNSLRAEDTAVYYCARLTHPYFWGQGTLVTVSRGGGGSGGGGSGGGGSSELTQDPAVSVALGQTVRITCQGDSLRSYYASWYQQKPGQAPVLVIYGKNNRPSGIPDRFSGSSSGNTASLTITGAQAEDEADYYCNSRDSSGNHVVFGGGTKLTVLGAAAEQKLISEEDLNGAA
inhibition of vWF-dependent platelet agglutination (washed platelets; final concentration of 10, 25 or 50 μg/ml, washed platelets, ristocetin): did not inhibit | % agglutination (washed platelets; scFv 25 μg/ml, 100% = ristocetin treatment): 85% | % inhibition (washed platelets; scFv 25 μg/ml, ristocetin-induced agglutination): 15% | % aggregation [3]: 100%
